We go through 2 molecules from paper doi:10.1101/2023.11.18.567679 (bioRxiv, 2023).

The labels stand for the following.
T1: Tse15 central Rhs domain (residues 335-1395) (Acinetobacter baumannii (strain …, UniProt A0A5K6CSR3 335-1395))
T1 sequence (looked up): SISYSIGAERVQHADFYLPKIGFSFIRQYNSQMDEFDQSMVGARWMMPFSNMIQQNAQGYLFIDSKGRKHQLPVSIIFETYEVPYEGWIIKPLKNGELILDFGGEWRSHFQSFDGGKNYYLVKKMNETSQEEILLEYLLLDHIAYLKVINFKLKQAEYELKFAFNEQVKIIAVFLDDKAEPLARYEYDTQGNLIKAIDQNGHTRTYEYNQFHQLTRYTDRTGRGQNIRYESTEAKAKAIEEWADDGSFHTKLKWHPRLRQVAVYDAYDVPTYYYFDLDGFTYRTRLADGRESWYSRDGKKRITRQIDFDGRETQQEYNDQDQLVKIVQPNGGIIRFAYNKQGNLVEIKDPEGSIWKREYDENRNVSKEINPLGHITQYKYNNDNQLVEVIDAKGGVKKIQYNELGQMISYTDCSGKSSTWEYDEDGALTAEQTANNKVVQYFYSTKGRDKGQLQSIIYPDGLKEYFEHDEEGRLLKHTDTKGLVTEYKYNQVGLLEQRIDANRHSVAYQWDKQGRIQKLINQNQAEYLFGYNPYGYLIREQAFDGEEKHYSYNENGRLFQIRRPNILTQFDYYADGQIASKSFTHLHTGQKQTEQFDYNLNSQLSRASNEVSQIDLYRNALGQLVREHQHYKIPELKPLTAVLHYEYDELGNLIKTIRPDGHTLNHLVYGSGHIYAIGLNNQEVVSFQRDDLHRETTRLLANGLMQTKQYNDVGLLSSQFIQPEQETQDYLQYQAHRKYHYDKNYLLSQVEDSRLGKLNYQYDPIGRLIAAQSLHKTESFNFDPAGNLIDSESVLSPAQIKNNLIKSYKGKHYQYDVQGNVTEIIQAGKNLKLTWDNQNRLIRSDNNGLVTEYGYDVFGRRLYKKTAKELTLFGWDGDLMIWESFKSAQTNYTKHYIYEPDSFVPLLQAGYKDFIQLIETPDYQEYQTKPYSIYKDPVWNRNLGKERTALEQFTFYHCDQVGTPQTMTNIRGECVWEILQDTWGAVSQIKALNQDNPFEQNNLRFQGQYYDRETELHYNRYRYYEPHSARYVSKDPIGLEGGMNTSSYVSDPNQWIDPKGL

B1: Tse15 N-terminal clade domain (residue 1-334) (domain or fragment, UniProt A0A5K6CSR3 1-334, looked up)
chain: MAKENTQQKEIKRQPAVELAVFNLNSVTDVADLQMIASQVQLYLQVCGNTTLEQIKSKANITTVANIFALTGSVLDLMLYATDKKTGDAAVQRGALLAANLIGLFSEPNNEAHARMALRPMFGLMAECLYRENGKIKETDIKRLGLHLNAMIAGDLENFLKETQAKLSSLLISATTLGVTILQSMATPATGINAGITTAAGASAEKRDPKLKFTNWAVPLIDLLGKPSQANLTPKIQPNITSRLQQEATQAIAALSQTLQQQANAGQKYTLAWLLQETLKAIQALENKGNASVPINQTGEYERHTKGDTLEFVSLQADALNAPPCEGADSQSGK
B2: Tse15 toxic C-terminal domain (residues 1396-1590) (domain or fragment, UniProt A0A5K6CSR3 1396-1590, looked up)
chain: NSFNYGEMFGIPASAQSGLAYQGQRNYECYAETGELCKIKVPPLFDYVACSGGGLGIGVGFVKNQWTGEYYISGSKDSLLIPVAKSVAQNKQFSAKDLAGASCVGGNIHNIPSYTKTTMTMGEITNEFVSGASVTVGGGAYGAVANVVVPLVSKSSPVKGTWASELGVGTPGFNVGVSGTVSVDTILDAVKPSKK

In assay [1] the target is T1, Tse15 central Rhs domain (residues …). Description: SEC. A general note: SEC sorts molecules by how far they enter the pores of the column.
Assay [2] shares this target. The experiment in a line: pull-down.
The target of assay [3] is B1. The experiment in a line: pull-down.

Take B1: in assay [1], the binding result is “binds”.
As to B2, the binding result in assay [2] and in assay [3] was “binds” throughout.
